Measurements published in patent US20260152565A1 (Dana-Farber, published 2026).
Like-named read-outs stand apart in the source and are kept apart here.

Key:
[1] = target: T1, BCMA on cells, species not stated (Homo sapiens (Human), UniProt Q02223 1-184); assay: blocking of BAFF binding to BCMA cells
T1 construct: also called BCMA cells; 3T3 BCMA cells
T1 sequence: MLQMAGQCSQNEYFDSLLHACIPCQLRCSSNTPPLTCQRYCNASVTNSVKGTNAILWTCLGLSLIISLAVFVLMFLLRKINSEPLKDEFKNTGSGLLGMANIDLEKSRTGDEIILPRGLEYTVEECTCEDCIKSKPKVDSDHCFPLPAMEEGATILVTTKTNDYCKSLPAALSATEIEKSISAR

EGFR = target: T2, EGFR (human, UniProt P00533 25-1210); assay: cell microarray, confirmation screen, control receptor; cell left blank in Table 13
T2 construct: whole, on cells; also called control receptor
Method: In order to screen the on-target specificity of one of the VH-only anti-BCMA-targeted CARs, the Retrogenix Cell Microarray Technology platform was employed, which is a high-throughput platform for screening binding interactions between a test molecule and about 6100 human surfaceome proteins.
This was performed on both fixed and live cells (FIGS. 11A-11D).

[2] = target: T1, BCMA on cells, species not stated; assay: cell binding, MFI against antibody concentration, panel title Bind to NCI-H929 cell
[3] = target: T3, human BCMA (TNFRSF17) expressed on cells (human, UniProt Q02223 1-184); assay: cell binding, MFI against antibody concentration, HEK 293T-hu BCMA cells (cell line from legend paragraph 17)
T3 construct: whole, on cells; also called HEK 293T-hu BCMA cells; human BCMA cell lines
T3 sequence (looked up): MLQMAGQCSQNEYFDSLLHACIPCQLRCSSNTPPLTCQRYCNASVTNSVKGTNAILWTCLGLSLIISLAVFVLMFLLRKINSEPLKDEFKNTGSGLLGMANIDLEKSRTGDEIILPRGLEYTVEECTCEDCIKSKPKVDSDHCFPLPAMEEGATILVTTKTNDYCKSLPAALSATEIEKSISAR

[4] = target: T4, cynomolgus monkey BCMA expressed on HEK 293T cells (cynomolgus monkey, UniProt A0A2K5UD97 1-183); assay: cell binding, MFI against antibody concentration, panel title Bind to HEK293T - cyno BCMA
T4 construct: also called HEK 293T-cyno BCMA cells; cyno BCMA
T4 sequence (A0A2K5UD97 entry or part of it limits assumed): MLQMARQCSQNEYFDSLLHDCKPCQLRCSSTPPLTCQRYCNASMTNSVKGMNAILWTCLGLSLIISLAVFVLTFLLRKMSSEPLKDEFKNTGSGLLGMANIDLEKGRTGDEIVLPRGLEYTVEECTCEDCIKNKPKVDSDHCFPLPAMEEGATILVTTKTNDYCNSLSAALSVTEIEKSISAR

[5] = target: T5, hBCMA-his-biotin (Acro, BCA-H82E4) (human, UniProt Q02223 1-54, biotin (as printed: hBCMA-his-biotin; site not stated)); assay: biosensor kinetics, SA sensor loaded with hBCMA-his-biotin, antibody in solution
T5 construct: Bought reagent; not shown: His tag
T5 sequence (looked up): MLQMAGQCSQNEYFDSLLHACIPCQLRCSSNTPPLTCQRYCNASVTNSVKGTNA
Method: (§1) The sensor was streptavidin (SA), loaded with hBCMA-his-biotin from Acro catalog number BCA-H82E4, and 50 nM antibody with a 1:2 dilution factor. Association times in FIG. 5A-FIG. 5C were each 600 s and dissociation times were each 900 s.

[6] = target: T5, hBCMA-his-biotin (Acro, BCA-H82E4); assay: as above; remark: listed apart in the source
Method: as §1

Binder	Span [1]	binding result (EGFR)	EC50 (read off the curve) [2]	EC50 (read off the curve) [3]	binding result [4]	Kd [5]	koff [5]	kon [5]	Kd [6]	koff [6]	kon [6]
PR001046 (antibody, V domains shown, also called HCAb antibody PR001046; PR001046 VH-only human IgG1 test antibody; not shown: constant part (CH2 and CH3)) VH: EVQLVETGGGLIQPGGSLRLSCAASGFTVSDNYMTWVRQAPGKGLEWVSVIFSGGNTYYADSVKGRFTISRDNAKNTLYLQMNSLRAEDTALYYCARRNYDDTRGTDVFDIWGQGTMVTVSS	1.99	no binding (tested: 2.5 µg/mL)	~2 nM	~0.02 µg/mL	–	–	–	–	–	–	–
PR000943 (antibody, V domains shown, also called HCAb antibody PR000943; not shown: constant part (CH2 and CH3 regions of the Harbour HCAb format)) VH: EVQLVETGGGLIQPGGSLRLSCAASGFPVSSNYMSWVRQAPGKGLEWVSVIFSGGRTYYADSVKGRFTISRDNSKNTLYLQMNSLRAEDTAVYYCARRNWIDGRDAFDIWGQGTMVTVSS	2.19	–	~4 nM	~0.01 µg/mL	–	–	–	–	–	–	–
PR001035 (antibody, V domains shown, also called HCAb antibody PR001035; not shown: constant part (CH2 and CH3 regions of the Harbour HCAb format)) VH: EVQLVETGGGLIQPGGSLRLSCAASGFTVSSNYMTWVRQAPGKGLEWVSVIFSGGSTYYADSVKGRFTISRDNSKNTLYLQMNSLRAEDTAVYYCARRIAVAGHDVFDIWGQGTMVTVSS	1.92	–	~1 nM	~0.02 µg/mL	–	–	–	–	–	–	–
PR000940 (antibody, V domains shown, Heavy chain-only antibody from Harbour HCAb mice: dimer of two heavy chains, each with VH, CH2 and CH3; also called HCAb antibody PR000940; not shown: constant part (CH2 and CH3 regions of the Harbour HCAb format)) VH: EVQLLESGGGLVQPGGSLRLSCAASGFTFSSYAMIWVRQAPGKGLEWVSGISESGGSTYYADSVKGRFTISRDNSKNTLYLQMNSLRAEDTAVYFCVKDLDDILTGYYKDYWGQGTLVTVSS	–	–	~2 nM	–	no binding	–	–	–	–	–	–
PR000274 (clone CA8-J6M0) (antibody, V domains shown) VH: QVQLVQSGAEVKKPGSSVKVSCKASGGTFSNYWMHWVRQAPGQGLEWMGATYRGHSDTYYNQKFKGRVTITADKSTSTAYMELSSLRSEDTAVYYCARGAIYDGYDVLDNWGQGTLVTVSS VL: DIQMTQSPSSLSASVGDRVTITCSASQDISNYLNWYQQKPGKAPKLLIYYTSNLHSGVPSRFSGSGSGTDFTLTISSLQPEDFATYYCQQYRKLPWTFGQGTKLEIKR	1.86	–	~10 nM	–	–	< 0.001 nM	< 1e-07 s⁻¹	228000 M⁻¹ s⁻¹	< 0.001 nM	< 1e-07 s⁻¹	195000 M⁻¹ s⁻¹
